From patent US20200277377A1 (WUXI BIOLOGICS SHANGHAI, published 2020) come the findings set out here.

For orientation: EC50 means the concentration that produces a half-maximal response. The Kd is the equilibrium constant for the complex coming apart. As a reminder, the koff is the rate constant with which the complex falls apart. As a reminder, the kon is the second-order rate constant of association. Usually EC50 (read off the curve) stands for the concentration needed to bring the measured effect to its halfway point.

Test [1] concerns the target T1, full length human CTLA-4 on cells (human, UniProt P16410 36-223).
T1 construct: whole, on cells; also called CTLA-4-expressing cell line
T1 sequence (looked up): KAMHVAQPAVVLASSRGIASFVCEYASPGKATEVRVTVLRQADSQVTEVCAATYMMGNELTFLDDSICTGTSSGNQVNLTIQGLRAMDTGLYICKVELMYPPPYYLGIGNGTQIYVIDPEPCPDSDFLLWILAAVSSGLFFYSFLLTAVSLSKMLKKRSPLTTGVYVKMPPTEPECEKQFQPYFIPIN
As to the kind of experiment: FACS on CTLA-4-expressing cell line.

Test [2] deals with T2, human CTLA-4.ECD-6×His (human, UniProt P16410 36-161).
T2 construct: extracellular domain; also called WBP316.hCTLA-4.ECD-6×His; hCTLA4-His (WT)
T2 sequence: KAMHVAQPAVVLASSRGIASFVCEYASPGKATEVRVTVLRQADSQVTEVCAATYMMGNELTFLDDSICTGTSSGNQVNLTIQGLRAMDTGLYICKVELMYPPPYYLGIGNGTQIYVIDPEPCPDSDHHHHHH
As to the kind of experiment: SPR, antibody captured on anti-human Fc, CTLA-4 ECD as analyte, 1:1 fit. The method, then:
The binding kinetics of four antibodies were measured using SPR. The antibodies were captured on immobilized goat anti-human Fc, and then human CTLA-4 ECD at different concentration was injected orderly. The sensorgrams for reference channel and buffer channel were subtracted from the test sensorgrams. The data was used to fit in 1:1 binding analysis.
(§1) Biacore T200, Series S Sensor Chip CMS, Amine Coupling Kit, and 10×HBS-EP were purchased from GE Healthcare. […] In immobilization step, the activation buffer was prepared by mixing 400 mM EDC and 100 mM NHS immediately prior to injection. The CM5 sensor chip was activated for 420 s with the activation buffer. 30 μg/mL of goat anti-human IgG Fcγ antibody in 10 mM NaAc (pH 4.5) was then injected to Fc1-Fc4 channels for 200 s at a flow rate of 5 μL/min. The chip was deactivated by 1 M ethanolamine-HCl (GE). Then the antibodies were captured on the chip. Briefly, 4 μg/mL antibodies in running buffer (HBS-EP+) was injected individually to Fc3 channel for 30 s at a flow rate of 10 μL/min. […] Regeneration buffer (10 mM Glycine pH 1.5) was injected at 10 μL/min for 30 s following every dissociation phase.
(In general: In SPR one partner is held on a chip, and binding of the other changes the refractive index at the surface.)

Test [3] concerns the target T3, cynomolgus monkey CTLA-4 ECD-6×His (cynomolgus monkey).
T3 construct: extracellular domain; Bought; also called cynomoguls monkey CTLA-4.ECD-6×His
The test can be described thus: SPR, antibody captured on anti-human Fc, CTLA-4.ECD-6×His as analyte, 1:1 fit. As for the experimental part: as §1
(§2) The binding kinetics of these antibodies were measured using SPR. The antibodies were captured on immobilized anti-human Fc and CTLA-4-ECD at different concentration was injected orderly. The sensorgrams for reference channel and buffer channel were subtracted from the test sensorgrams. The data was used for 1:1 binding analysis on human, monkey and mouse CTLA-4.ECD-6×His.

Test [4] deals with T4, Murine CTLA-4.ECD-6×His (mouse, UniProt P09793 36-161).
T4 construct: extracellular domain; Bought; also called mouse CTLA-4.ECD-6×His; mouse CTLA-4 ECD
The test is described as above. As for the experimental part: as §1, §2

Test [5] deals with T2, human CTLA-4.ECD-6×His. The test is described as above. As for the experimental part: as §1, §2
For test [6], the target named is T5, murine CTLA-4 (Example 3 ELISA, construct not stated) (mouse, UniProt P09793 36-161, limits assumed).
T5 construct: also called mouse CTLA-4
As to the kind of experiment: ELISA; ELISA, murine CTLA-4. The method, then:
(§3) The antibodies were tested on CTLA-4-binding ELISA.
(§4) ELISA was used to test binding of anti-human CTLA-4 antibodies to human, murine and cynomolgus monkey CTLA-4 protein. A 96-well plate was coated with human CTLA-4.ECD-6×His (1.0 μg/mL), cynomoguls monkey CTLA-4.ECD-6×His (0.5 μg/mL) or mouse CTLA-4.ECD-6×His (0.5 μg/mL) at 4° C. for 16-20 hours. After 1 hour blocking with 2% BSA in DBPS, testing antibodies, as well as positive and negative control antibodies were added to the plates and incubated at room temperature for 1 hour. The binding of the antibodies to the plates were detected by HRP-conjugated goat anti-human IgG antibody (1:5000 dilution) with 1 hour incubation. The color was developed by dispensing 100 μL of TMB substrate for 8 mins, and then stopped by 100 μL of 2N HCl.
On the technique in general: In an ELISA, binding on a coated surface is turned into a signal by an enzyme label.

Test [7] has as its target T6, monkey CTLA-4 (Example 3 ELISA, construct not stated) (cynomolgus monkey, UniProt G7PL88 36-161).
T6 construct: also called cyno CTLA-4
T6 sequence: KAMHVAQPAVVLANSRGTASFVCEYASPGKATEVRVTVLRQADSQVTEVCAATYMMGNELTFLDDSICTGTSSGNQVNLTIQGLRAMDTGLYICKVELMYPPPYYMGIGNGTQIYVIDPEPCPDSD
As to the kind of experiment: ELISA, antibody titrated on cyno CTLA-4, OD450. As for the experimental part:
as §3, §4

Test [8] has as its target T7, human CTLA-4 (Example 3 ELISAs, construct not stated) (human, UniProt P16410 36-161).
T7 sequence (looked up): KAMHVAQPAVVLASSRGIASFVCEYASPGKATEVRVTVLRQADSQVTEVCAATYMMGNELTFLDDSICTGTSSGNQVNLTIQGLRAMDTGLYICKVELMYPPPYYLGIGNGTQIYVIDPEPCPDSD
The test can be described thus: competition ELISA: coated human CTLA-4, antibody mixed with biotinylated CD80, bound ligand detected with streptavidin-HRP [A) CD80]. The method, then: (§5) Both ELISA and FACS were used as the competition assays. In ELISA based competition assay, human CTLA-4 was coated on the plates, and the antibodies mixed with biotinylated ligands were added into the plate. The bound ligands were detected by HRP conjugated streptavidin.

The target of test [9] is T7, human CTLA-4 (Example 3 ELISAs, …). The test can be described thus: competition ELISA: coated human CTLA-4, antibody mixed with biotinylated CD86, bound ligand detected with streptavidin-HRP [B) CD86]. As for the experimental part:
as §5
Plates were coated with human CTLA-4.ECD.hFc (0.5 μg/mL) at 4° C. for 16-20 hours. […] After washing three times with PBS containing 0.05% Tween 20, biotinylated anti-His tag antibody was 1:2000 diluted and added. The plates were incubated at room temperature for 1 hour. The bound ligands were detected by HRP conjugated streptavidin (1:20000).

Test [10] has the same target. The test can be described thus: ELISA, antibody titrated on human CTLA-4, OD450. As for the experimental part: as §3, §4
In test [11] the target is T8, biotinylated human CTLA-4 (Example 3 FACS competition) (human, UniProt P16410 36-161, limits assumed, biotinylated (sites not given)).
T8 sequence (looked up): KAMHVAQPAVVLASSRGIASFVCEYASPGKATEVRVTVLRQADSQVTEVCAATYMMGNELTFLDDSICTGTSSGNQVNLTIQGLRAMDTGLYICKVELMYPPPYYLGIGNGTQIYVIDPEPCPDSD
The test can be described thus: competition FACS: antibody mixed with biotinylated human CTLA-4, added to CD86-expressing cells (panel title W316-CHO-K1.hPro1.L2), bound CTLA-4 detected with streptavidin-PE [B]. The method, then: as §5
(§6) Then the mixtures of antibody and CTLA-4 were added to the cells and incubated for 1 hour at 4° C. The cells were washed two times with 200 μL FACS buffer (DPBS containing 1% BSA). Streptavidin PE 1 to 333 diluted in FACS buffer was added to the cells and incubated at 4° C. for 1 hour.

Test [12] deals with T5, murine CTLA-4 (Example 3 ELISA, …). As to the kind of experiment: ELISA, antibody titrated on mouse CTLA-4, OD450. The method, then:
as §3, §4

The target of test [13] is T8, biotinylated human CTLA-4 (Example 3 …). The test can be described thus: competition FACS: antibody mixed with biotinylated human CTLA-4, added to CD80-expressing cells (panel title W316-CHO-K1.hPro1.L1), bound CTLA-4 detected with streptavidin-PE [A]. As for the experimental part: as §5, §6

B1: W3162-1.146.19 xAb.IgG1 (antibody, V domains shown)
VH: EVQLQESGPGLVKPSQSLSLTCSVTYHTITSGYDWTWIRKFPGNQMEWMGYISYSGNTNYNPSLKSRISITRDTSKNQFFLHLNSVTSEDTATYYCASMMVPHYYVMDAWGQGASVTVSS
VL: DVVLTQTPPTSSATIGQSVSISCRSSQSLLNSDGNTYLYWYLQRPSQSPQLLIYLVSKLGSGVPNRFSGSGSGTDFTLKISGVEAEDLGLYYCVQGTHDPWTFGGGTKLELK
notes: Chimeric: rat variable regions fused with constant region of human antibody (label xAb.IgG1)
Consider B1, for which the EC50 in test [1] stood at 3.25 nM; in test [6], 0.01 nM. For the same molecule, the Kd in [2] came to 0.208 nM; in test [3], 0.369 nM; in test [4], 0.906 nM; in [5] it was 0.208 nM. Further, the koff in test [2] was found to be 0.000148 s⁻¹; in test [3], 0.000107 s⁻¹; in test [4], 0.000228 s⁻¹; in test [5], 0.000148 s⁻¹. For the same molecule, the association rate constant (kon) in test [2] was determined as 709000 M⁻¹ s⁻¹; in [3], 291000 M⁻¹ s⁻¹; in test [4] it was 251000 M⁻¹ s⁻¹; in [5], 709000 M⁻¹ s⁻¹. Moreover, the results for the “EC50 (read off the curve)” value in test [7] and in [10] were roughly 0.1 nM and roughly 0.04 nM, respectively. Besides, the “IC50 (read off the curve)” value is roughly 0.7 nM in [8], roughly 0.8 nM in [9] and roughly 1 nM in [11].

B2: W3162-1.145.10 xAb.IgG1 (antibody, V domains shown)
VH: EVQLVESGGGLVQPGRSLKLSCAASDLTFSNYDMAWVRQTPTKGLEWVASISPNGGNTYYRDSVKGRFTVSRDNAKNSLYLQMDSLRSEDTATYYCARHLWFAYWGQGTLVTVSS
VL: DIQMTQSPSSMSASLGDRVTISCQASQDIGSNLIWFQQKPGKSPRPMIYYATHLADGVPSRFSGSRSGSDYSLTISSLESEDVADYHCLQYKQYPRTFGGGTKLELK
notes: as for B1
Take B2: the values for the Kd in [2], in test [3] and in [5] were 2.08 nM, 0.355 nM and 2.08 nM, respectively. For the same molecule, the koff is 0.0165 s⁻¹ in [2], 0.00377 s⁻¹ in test [3] and 0.0165 s⁻¹ in [5]. For the same molecule, the kon in test [2] is 7.93e+06 M⁻¹ s⁻¹; in test [3] it was 1.06e+07 M⁻¹ s⁻¹; in test [5], 7.93e+06 M⁻¹ s⁻¹. Further, in test [12], the binding result is given as “no binding (tested: about 20 nM)”. The “EC50 (read off the curve)” value in [7] is roughly 0.1 nM; in test [10] it was roughly 0.01 nM. Besides, the “IC50 (read off the curve)” value in [8] was roughly 0.3 nM; in test [9], roughly 0.4 nM; in test [13], roughly 1 nM; in test [11], roughly 0.3 nM.

B3: W3162-1.101.2 xAb.IgG1 (antibody, V domains shown)
VH: EEQLVESGGGLVQPGKSLKLSCSASGFTFRSSAMHWIRQPPGKGLDWVAFISSGGDTAYADAVKGRFIVSRDNAENTLFLQLNSLKSEDTAIYYCVRMERIPTWGQGVMVTVSS
VL: DIVLTQSPVLAVSLGQRATISCRASQSVSISSINLIHWYQQRPGQQPKLLIYRTSNLASGIPARFSGSGSGTDFTLSIDPVQADDVADYYCQQSRESPLTFGSGTKLEIK
notes: as for B1
B3 gave an equilibrium dissociation constant (Kd) in test [2] of 0.1 nM. Further, the koff in test [2] came to 6.97e-05 s⁻¹. Moreover, the kon in test [2] is 695000 M⁻¹ s⁻¹. In test [12], the binding result is on record as “no binding (tested: about 20 nM)”. The “EC50 (read off the curve)” value in [7] is roughly 0.1 nM; in test [10], roughly 0.04 nM. Besides, the entries for the “IC50 (read off the curve)” value in test [9] and in [11] were roughly 0.5 nM and roughly 20 nM, respectively.

B4: W3162-1.154.8 xAb.IgG1 (antibody, V domains shown)
VH: EVQLQQSGPEAGRPGSSVKISCKASGYTFTNYFMNWVKQSPGQGLEWIGRVDPENGRADYAEKFKKKATLTADTTSNTAYIHLSSLTSEDTATYFCARRAMDNYGFAYWGQGTLVTVSS
VL: EIMLTQSPTIMAASLGEKITITCSANSSLSYMYWFQQKSGASPKLWVHGTSNLASGVPDRFSGSGSGTSYYLTINTMEAEDAATYFCHHWSNTQWTFGGGTKLELK
notes: as for B1
On to B4, for which the EC50 in test [1] amounted to 1.26 nM. For the same molecule, the Kd came out at 0.068 nM in [2], 0.0872 nM in [3] and 0.068 nM in test [5]. Besides, the koff in test [2] is 0.000125 s⁻¹; in test [3] it was 0.000109 s⁻¹; in test [5], 0.000125 s⁻¹. The kon in test [2] was determined as 1.85e+06 M⁻¹ s⁻¹; in test [3] it was 1.25e+06 M⁻¹ s⁻¹; in [5] it was 1.85e+06 M⁻¹ s⁻¹. The binding result in test [12] is reported as “no binding (tested: about 20 nM)”. Also, the figures for the “EC50 (read off the curve)” value in test [7] and in test [10] were roughly 0.08 nM and roughly 0.05 nM, respectively. Also, the “IC50 (read off the curve)” value in test [8] is roughly 0.3 nM; in [9] it was roughly 0.4 nM; in [11], roughly 0.08 nM.
